In test [1] the target is GST-KIAA1634 PDZ domain 5 (Homo sapiens (Human)), Q5TCQ9. The test is described as follows: G' assay. Further: key of the grades not given here.
Test [2] addresses T1, GST-MUPP1 PDZ domain 13 (Homo sapiens (Human)), O75970.
T1 chain: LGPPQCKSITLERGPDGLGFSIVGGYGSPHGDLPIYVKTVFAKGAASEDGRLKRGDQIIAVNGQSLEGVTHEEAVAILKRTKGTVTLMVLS
Description: G' assay. Further: key of the grades not given here.

For test [3], the target named is T2, GST-MINT1 PDZ domain 2 (Mus musculus (Mouse)), B2RUJ5.
T2 chain: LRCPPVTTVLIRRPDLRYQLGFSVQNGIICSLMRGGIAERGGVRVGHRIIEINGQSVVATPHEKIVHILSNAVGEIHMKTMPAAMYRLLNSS
The test is described as follows: G' assay. Further: key of the grades not given here.

Test [4] deals with T3, GST-KIAA0807(S) PDZ domain 1 (Homo sapiens (Human)), Q6P0Q8.
T3 chain: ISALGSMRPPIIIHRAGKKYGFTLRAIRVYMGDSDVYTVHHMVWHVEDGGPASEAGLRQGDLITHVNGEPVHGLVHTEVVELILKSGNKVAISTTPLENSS
The test is described as follows: G' assay. Further: key of the grades not given here.

The target in test [5] is T4, GST-KIAA0973 PDZ domain 1 (Homo sapiens (Human)), Q9Y2H9.
T4 chain: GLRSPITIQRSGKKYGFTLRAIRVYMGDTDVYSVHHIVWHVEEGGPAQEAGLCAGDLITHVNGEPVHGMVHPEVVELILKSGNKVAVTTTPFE
The test is described as follows: G' assay. Further: key of the grades not given here.

The target in test [6] is T5, GST-AIPC PDZ domain 1 (Homo sapiens (Human)), O15018.
T5 chain: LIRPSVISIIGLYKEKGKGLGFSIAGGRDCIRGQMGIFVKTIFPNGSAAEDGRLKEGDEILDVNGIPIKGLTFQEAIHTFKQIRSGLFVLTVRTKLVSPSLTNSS
Description: G' assay. Further: key of the grades not given here.

Test [7] has as its target T6, GST-KIAA0382 PDZ domain 1 (Canis lupus familiaris (Dog) (Canis familiaris)), A0A8I3.
T6 chain: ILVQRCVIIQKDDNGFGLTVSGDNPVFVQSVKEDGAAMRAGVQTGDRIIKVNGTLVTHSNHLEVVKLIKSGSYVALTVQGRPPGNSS
The test is described as follows: G' assay. Further: key of the grades not given here.

In test [8] the target is T7, GST-APXL-1 PDZ domain 1 (Homo sapiens (Human)), Q13796.
T7 chain: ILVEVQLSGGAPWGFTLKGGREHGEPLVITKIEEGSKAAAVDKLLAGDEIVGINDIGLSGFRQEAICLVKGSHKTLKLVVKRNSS
Description: G' assay.

Test [9] deals with T8, GST-novel PDZ gene PDZ domain 1 (Homo sapiens (Human)), Q9H5P4.
T8 chain: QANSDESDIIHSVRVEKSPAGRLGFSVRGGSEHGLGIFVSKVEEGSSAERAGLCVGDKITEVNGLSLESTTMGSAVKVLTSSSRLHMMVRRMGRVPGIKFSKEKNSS
The test is described as follows: G' assay.

Test [10] concerns the target T9, GST-KIAA1526 PDZ domain 1 (Homo sapiens (Human)), Q9P202.
T9 chain: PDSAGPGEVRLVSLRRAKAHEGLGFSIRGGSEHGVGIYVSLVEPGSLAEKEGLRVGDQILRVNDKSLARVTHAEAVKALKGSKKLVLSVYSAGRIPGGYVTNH
Description: G' assay.

Test [11] concerns the target T10, GST-PTPL1 PDZ domain 2 (Homo sapiens (Human)), Q12923.
T10 chain: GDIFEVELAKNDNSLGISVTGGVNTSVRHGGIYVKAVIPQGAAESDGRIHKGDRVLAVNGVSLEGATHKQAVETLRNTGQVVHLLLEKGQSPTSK
The test is described as follows: G' assay.

Test [12] concerns the target T11, GST-MUPP1 PDZ domain 9 (Homo sapiens (Human)), O75970.
T11 chain: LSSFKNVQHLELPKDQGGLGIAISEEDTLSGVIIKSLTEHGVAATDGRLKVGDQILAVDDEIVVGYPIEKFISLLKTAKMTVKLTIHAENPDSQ
The test is described as follows: G' assay.

In test [13] the target is T12, GST-LIM Mystique PDZ domain 1 (Homo sapiens (Human)), Q96JY6.
T12 chain: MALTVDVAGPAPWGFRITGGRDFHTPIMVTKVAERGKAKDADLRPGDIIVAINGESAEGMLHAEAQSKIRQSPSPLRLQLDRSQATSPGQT
The test is described as follows: G' assay.

In test [14] the target is T13, GST-ENIGMA PDZ domain 1 (Homo sapiens (Human)), Q9NR12.
T13 chain: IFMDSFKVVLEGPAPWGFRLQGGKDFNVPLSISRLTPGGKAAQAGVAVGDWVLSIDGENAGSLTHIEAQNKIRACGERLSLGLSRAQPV
The test is described as follows: G' assay.

In test [15] the target is GST-KIAA807 [GST: P08515]. The test is described as follows: G' assay.
Test [16] addresses GST-BAI-1 Associated Protein PDZ domain 6 (Homo sapiens (Human)), Q96QZ7. Description: G' assay. Further: key of the grades not given here.
For test [17], the target named is T14, GST-LIM-RIL PDZ domain 1 (Homo sapiens (Human)), P50479.
T14 chain: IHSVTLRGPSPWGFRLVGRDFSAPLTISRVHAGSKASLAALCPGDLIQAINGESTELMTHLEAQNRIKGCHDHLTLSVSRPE
The test is described as follows: G' assay.

For test [18], the target named is GST-PAR3 PDZ domain 3 (Homo sapiens (Human)), Q8TEW0. Description: G' assay. Further: key of the grades not given here.
Test [19] addresses T15, GST-MUPP1 PDZ domain 7 (Homo sapiens (Human)), O75970.
T15 chain: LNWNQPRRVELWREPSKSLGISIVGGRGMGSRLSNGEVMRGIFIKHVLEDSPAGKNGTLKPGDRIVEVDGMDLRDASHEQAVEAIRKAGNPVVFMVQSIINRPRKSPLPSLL
The test is described as follows: G' assay.

Test [20] addresses T16, GST-Shank 1 PDZ domain 1 (Homo sapiens (Human)), Q9UPX8.
T16 chain: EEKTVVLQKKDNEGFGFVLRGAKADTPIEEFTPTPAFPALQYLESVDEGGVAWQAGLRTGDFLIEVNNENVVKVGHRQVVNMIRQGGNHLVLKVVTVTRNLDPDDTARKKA
Description: G' assay.

For test [21], the target named is T17, GST-ZO-2 PDZ domain 2 (Homo sapiens (Human)), Q9UDY2.
T17 chain: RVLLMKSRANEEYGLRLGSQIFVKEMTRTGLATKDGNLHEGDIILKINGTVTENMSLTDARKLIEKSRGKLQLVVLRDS
Description: G' assay.

Test [22] deals with T18, GST-ZO-1 PDZ domain 2 (Rattus norvegicus (Rat)), A0A0G2.
T18 chain: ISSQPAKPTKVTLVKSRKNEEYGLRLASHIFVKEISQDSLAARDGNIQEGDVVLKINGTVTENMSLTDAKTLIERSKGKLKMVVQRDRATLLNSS
Description: G' assay.

Test [23] addresses T19, GST-ZO-1 PDZ domain 1 (Rattus norvegicus (Rat)), A0A0G2.
T19 chain: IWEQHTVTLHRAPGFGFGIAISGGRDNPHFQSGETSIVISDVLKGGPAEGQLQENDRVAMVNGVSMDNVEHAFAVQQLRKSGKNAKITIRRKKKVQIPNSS
Description: G' assay.

Test [24] addresses GST-Atrophin-1 Interacting Protein PDZ domain 5 (Rattus norvegicus (Rat)), O88382. The test is described as follows: G' assay. Further: key of the grades not given here.
In test [25] the target is T20, GST-PTN-4 PDZ domain 1 (Homo sapiens (Human)), P29074.
T20 chain: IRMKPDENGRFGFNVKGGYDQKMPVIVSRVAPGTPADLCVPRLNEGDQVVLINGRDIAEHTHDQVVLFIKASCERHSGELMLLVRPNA
Description: G' assay.

Test [26] deals with GST-KIAA0147 PDZ domain 1 (Homo sapiens (Human)), Q14160. Description: G' assay. Further: key of the grades not given here.
For test [27], the target named is T3, GST-KIAA0807(S) PDZ domain 1 (Homo …). Description: G assay titration, PDZ 0.5 ug/ml.
Test [28] concerns the target T21, GST-Shank 3 PDZ domain 1 (human (hypothetical, computer cloned)), Q9BYB0.
T21 chain: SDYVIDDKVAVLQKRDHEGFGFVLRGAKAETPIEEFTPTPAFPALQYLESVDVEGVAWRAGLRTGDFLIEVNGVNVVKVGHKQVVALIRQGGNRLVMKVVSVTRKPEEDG
The test is described as follows: G' assay.

The target of test [29] is T22, GST-Outer Membrane PDZ domain 1 (Homo sapiens (Human)), P57105.
T22 chain: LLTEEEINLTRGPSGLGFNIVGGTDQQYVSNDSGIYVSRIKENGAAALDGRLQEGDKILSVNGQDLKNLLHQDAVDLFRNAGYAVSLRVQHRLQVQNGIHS
Description: G' assay.

Test [30] addresses T23, GST-PDZK1 PDZ domains 2, 3, 4, Q5T2W1.
T23 chain: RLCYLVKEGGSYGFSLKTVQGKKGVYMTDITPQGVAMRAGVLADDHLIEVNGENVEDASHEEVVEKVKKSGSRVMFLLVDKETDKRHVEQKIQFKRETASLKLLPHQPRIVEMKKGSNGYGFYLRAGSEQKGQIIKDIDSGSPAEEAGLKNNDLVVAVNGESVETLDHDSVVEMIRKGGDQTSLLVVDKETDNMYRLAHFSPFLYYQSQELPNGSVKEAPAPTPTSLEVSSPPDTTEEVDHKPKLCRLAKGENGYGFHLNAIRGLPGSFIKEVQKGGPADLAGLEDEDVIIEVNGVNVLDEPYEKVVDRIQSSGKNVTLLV
The test is described as follows: G' assay.

The target of test [31] is GST-PIST PDZ domain 1 (Mus musculus (Mouse)), Q8BH60. The test is described as follows: G' assay. Further: key of the grades not given here.
Test [32] has as its target GST-KIAA0316 PDZ domain 1 (Homo sapiens (Human)), Q14CM0. The test is described as follows: G' assay. Further: key of the grades not given here. Particulars: remark: other sources report otherwise.
Test [33] addresses T24, GST-FLJ00011 PDZ domain 1 (Homo sapiens (Human)), Q9H5P4.
T24 chain: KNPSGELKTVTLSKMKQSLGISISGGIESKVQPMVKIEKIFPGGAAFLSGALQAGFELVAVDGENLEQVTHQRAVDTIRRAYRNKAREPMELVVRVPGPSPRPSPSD
The test is described as follows: G' assay.

Usually Kd stands for a measure of binding affinity in units of concentration. Higher therefore signals a looser complex.

Sequence of GST-KIAA807 [GST: P08515] (P08515 whole entry, the tested form may be a part): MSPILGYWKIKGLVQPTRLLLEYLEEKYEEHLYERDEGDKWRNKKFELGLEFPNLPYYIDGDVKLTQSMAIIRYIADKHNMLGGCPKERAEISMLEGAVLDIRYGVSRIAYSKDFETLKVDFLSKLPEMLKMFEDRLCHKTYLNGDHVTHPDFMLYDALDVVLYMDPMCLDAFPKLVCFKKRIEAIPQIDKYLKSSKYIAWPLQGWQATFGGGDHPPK
Sequence of GST-KIAA1634 PDZ domain 5 (Homo sapiens (Human)), Q5TCQ9 (Q5TCQ9 other isoform, or with tags, fused parts or gaps): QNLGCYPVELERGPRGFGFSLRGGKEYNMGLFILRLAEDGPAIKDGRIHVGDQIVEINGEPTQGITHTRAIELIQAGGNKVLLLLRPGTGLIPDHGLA
Sequence of GST-BAI-1 Associated Protein PDZ domain 6 (Homo sapiens (Human)), Q96QZ7 (Q96QZ7 1143-1233): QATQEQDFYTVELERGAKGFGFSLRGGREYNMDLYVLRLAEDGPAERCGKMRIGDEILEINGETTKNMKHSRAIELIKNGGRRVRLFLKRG
Sequence of GST-Atrophin-1 Interacting Protein PDZ domain 5 (Rattus norvegicus (Rat)), O88382 (O88382 1128-1225): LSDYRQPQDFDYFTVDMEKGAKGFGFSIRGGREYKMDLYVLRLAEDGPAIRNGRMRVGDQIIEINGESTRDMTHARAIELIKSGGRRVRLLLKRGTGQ
Sequence of GST-KIAA0147 PDZ domain 1 (Homo sapiens (Human)), Q14160 (Q14160 other isoform, or with tags, fused parts or gaps): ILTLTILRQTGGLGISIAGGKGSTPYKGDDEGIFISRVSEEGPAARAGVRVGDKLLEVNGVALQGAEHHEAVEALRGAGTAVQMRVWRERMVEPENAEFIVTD
Sequence of GST-PAR3 PDZ domain 3 (Homo sapiens (Human)), Q8TEW0 (Q8TEW0 579-681): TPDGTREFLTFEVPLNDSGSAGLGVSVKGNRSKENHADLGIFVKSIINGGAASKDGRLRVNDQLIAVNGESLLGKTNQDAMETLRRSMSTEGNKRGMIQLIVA
Sequence of GST-KIAA0316 PDZ domain 1 (Homo sapiens (Human)), Q14CM0 (Q14CM0 72-159): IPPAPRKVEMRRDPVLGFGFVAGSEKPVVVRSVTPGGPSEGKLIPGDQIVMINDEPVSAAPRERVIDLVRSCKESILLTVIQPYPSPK

Turning to VHDAESSDEDGYDWGPATDL (modifications not checked) [zona occludens 3 (ZO-3) PL peptide], the Classification was determined as 1 A450 class in test [1]; 2 A450 class in test [2]; 2 A450 class in [3]; 5 A450 class in test [4]; 2 A450 class in test [5]; 1 A450 class in test [6]. For the same molecule, the Classification in test [7] worked out at 2 A450 class; in [8], 2 A450 class; in [9] it was 1 A450 class; in [10], 1 A450 class; in [11] it was 2 A450 class; in test [12], 1 A450 class. The Classification in [13] worked out at 2 A450 class; in test [14] it was 1 A450 class; in test [15], 5 A450 class; in [16], 2 A450 class; in [17] it was 2 A450 class; in test [18], 1 A450 class. For the same molecule, the Classification in [19] and in test [20] was 1 A450 class in each case.

Take TEGNESSEATSPVNAIYSLA (modifications not checked) [neurofascin (chicken)]: the Classification in test [21], in test [10], in [22] and in test [23] was 1 A450 class throughout.

Take QATSRNGHSARQHVVADTEL (modifications not checked) [CD34]: the Classification came to 1 A450 class in test [1]; 3 A450 class in test [4]; 1 A450 class in [7]; 1 A450 class in [24]; 5 A450 class in [15]; 1 A450 class in test [16]. For the same molecule, the Classification in test [17], in test [25], in test [26] and in test [20] was 1 A450 class each time.

For KENDYESISDLQQGRDITRL (modifications not checked) [PAG], the Kd in [27] was determined as 0.35 µM. Also, the Classification in [28] worked out at 2 A450 class; in test [4], 5 A450 class; in test [7], 1 A450 class; in test [8] it was 2 A450 class; in test [29], 2 A450 class; in test [30], 1 A450 class. The Classification amounted to 1 A450 class in test [24]; 1 A450 class in test [31]; 5 A450 class in [15]; 1 A450 class in test [32]; 4 A450 class in test [20]; 3 A450 class in test [33].

For the molecule QPTPTLGLNLGNDPDRGTSI (modifications not checked) [GluR delta-2], in test [27], the Kd came out at 4 µM. Moreover, the Classification worked out at 4 A450 class in test [4], 2 A450 class in test [29], 2 A450 class in test [10] and 3 A450 class in [15].

For PSSRASSRASSRPRPDDLEI (modifications not checked) [CX43 (connexin 43)], the figures for the Classification in [21] and in [22] were 1 A450 class and 2 A450 class, respectively.

(Values after patent US20050282743A1, “Molecular interactions in cells” (Arbor Vita Corporation, priority 2001, published 2005).)
